Laboratory results published in US20120316071A1 (published 2012).

Tests used:
[1] = target: T1, Recombinant Human DLL4 (delta-like protein 4) (human, UniProt Q9NR61 27-524); experiment: ELISA, DLL4-coated plate, 100 nM Fab
T1 construct: Bought recombinant human DLL4 (R&D Systems Cat#1506-D4/CF); also called rHuman DLL4

[2] = target: T1, Recombinant Human DLL4 (delta-like …); experiment: ECL (MSD) binding assay, immobilised DLL4, 10 nM Fab;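 further: fab binding read as electrochemiluminescence via a TAG-labelled detection antibody, 1 h incubations at 20 °C, antigen signal compared with each well's blank, ratio of at least 4 scored as binder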

| Binder | ELISA Signal [100 nM Fab] [1] | ECL Signal [10 nM Fab] [2] |
| --- | --- | --- |
| Fab VH5-51_IGHD5-18*01>3_IGHJ4*01 G100K/G104T & V3-4_IGLJ1*01 (Fab, V domains shown, Fab; expressed with CH1 (His and Flag tags) and lambda CL from the expression plasmids; also called H:KT & L:wt; KT double mutant) VH: EVQLVQSGAEVKKPGESLKISCKGSGYSFTSYWIGWVRQMPGKGLEWMGIIYPGDSDTRYSPSFQGQVTISADKSISTAYLQWSSLKASDTAMYYCARRKYSYTYDYFDYWGQGTLVTVSS VL: QTVVTQEPSFSVSPGGTVTLTCGLSSGSVSTSYYPSWYQQTPGQAPRTLIYSTNTRSSGVPDRFSGSILGNKAALTITGAQADDESDYYCVLYMGSGISYVFGTGTKVTVL | 0.01 | 42900 |
| Fab VH5-51_IGHD5-18*01>3_IGHJ4*01 G100K/G104T & V3-4_IGLJ1*01 M94E (Fab, V domains shown, Fab; expressed with CH1 (His and Flag tags) and lambda CL from the expression plasmids; also called H:KT & M94E) VH: EVQLVQSGAEVKKPGESLKISCKGSGYSFTSYWIGWVRQMPGKGLEWMGIIYPGDSDTRYSPSFQGQVTISADKSISTAYLQWSSLKASDTAMYYCARRKYSYTYDYFDYWGQGTLVTVSS VL: QTVVTQEPSFSVSPGGTVTLTCGLSSGSVSTSYYPSWYQQTPGQAPRTLIYSTNTRSSGVPDRFSGSILGNKAALTITGAQADDESDYYCVLYEGSGISYVFGTGTKVTVL | 0.01 | 32500 |
| Fab VH5-51_IGHD5-18*01>3_IGHJ4*01 G100K/G104T & V3-4_IGLJ1*01 M94D (Fab, V domains shown, Fab; expressed with CH1 (His and Flag tags) and lambda CL from the expression plasmids; also called H:KT & M94D) VH: EVQLVQSGAEVKKPGESLKISCKGSGYSFTSYWIGWVRQMPGKGLEWMGIIYPGDSDTRYSPSFQGQVTISADKSISTAYLQWSSLKASDTAMYYCARRKYSYTYDYFDYWGQGTLVTVSS VL: QTVVTQEPSFSVSPGGTVTLTCGLSSGSVSTSYYPSWYQQTPGQAPRTLIYSTNTRSSGVPDRFSGSILGNKAALTITGAQADDESDYYCVLYDGSGISYVFGTGTKVTVL | 0.01 | 52700 |
| Fab VH5-51_IGHD5-18*01>3_IGHJ4*01 G100K/G104T & V3-4_IGLJ1*01 M94F (Fab, V domains shown, Fab; expressed with CH1 (His and Flag tags) and lambda CL from the expression plasmids; also called H:KT & M94F) VH: EVQLVQSGAEVKKPGESLKISCKGSGYSFTSYWIGWVRQMPGKGLEWMGIIYPGDSDTRYSPSFQGQVTISADKSISTAYLQWSSLKASDTAMYYCARRKYSYTYDYFDYWGQGTLVTVSS VL: QTVVTQEPSFSVSPGGTVTLTCGLSSGSVSTSYYPSWYQQTPGQAPRTLIYSTNTRSSGVPDRFSGSILGNKAALTITGAQADDESDYYCVLYFGSGISYVFGTGTKVTVL | 0.01 | 26300 |
| Fab VH5-51_IGHD5-18*01>3_IGHJ4*01 G100K/G104T & V3-4_IGLJ1*01 M94L (Fab, V domains shown, Fab; expressed with CH1 (His and Flag tags) and lambda CL from the expression plasmids; also called H:KT & M94L) VH: EVQLVQSGAEVKKPGESLKISCKGSGYSFTSYWIGWVRQMPGKGLEWMGIIYPGDSDTRYSPSFQGQVTISADKSISTAYLQWSSLKASDTAMYYCARRKYSYTYDYFDYWGQGTLVTVSS VL: QTVVTQEPSFSVSPGGTVTLTCGLSSGSVSTSYYPSWYQQTPGQAPRTLIYSTNTRSSGVPDRFSGSILGNKAALTITGAQADDESDYYCVLYLGSGISYVFGTGTKVTVL | 0.02 | 46800 |
| Fab VH5-51_IGHD5-18*01>3_IGHJ4*01 G100K/G104T & V3-4_IGLJ1*01 M94G (Fab, V domains shown, Fab; expressed with CH1 (His and Flag tags) and lambda CL from the expression plasmids; also called H:KT & M94G) VH: EVQLVQSGAEVKKPGESLKISCKGSGYSFTSYWIGWVRQMPGKGLEWMGIIYPGDSDTRYSPSFQGQVTISADKSISTAYLQWSSLKASDTAMYYCARRKYSYTYDYFDYWGQGTLVTVSS VL: QTVVTQEPSFSVSPGGTVTLTCGLSSGSVSTSYYPSWYQQTPGQAPRTLIYSTNTRSSGVPDRFSGSILGNKAALTITGAQADDESDYYCVLYGGSGISYVFGTGTKVTVL | 0.01 | 20300 |
| Fab VH5-51_IGHD5-18*01>3_IGHJ4*01 G100K/G104T & V3-4_IGLJ1*01 M94N (Fab, V domains shown, Fab; expressed with CH1 (His and Flag tags) and lambda CL from the expression plasmids; also called H:KT & M94N) VH: EVQLVQSGAEVKKPGESLKISCKGSGYSFTSYWIGWVRQMPGKGLEWMGIIYPGDSDTRYSPSFQGQVTISADKSISTAYLQWSSLKASDTAMYYCARRKYSYTYDYFDYWGQGTLVTVSS VL: QTVVTQEPSFSVSPGGTVTLTCGLSSGSVSTSYYPSWYQQTPGQAPRTLIYSTNTRSSGVPDRFSGSILGNKAALTITGAQADDESDYYCVLYNGSGISYVFGTGTKVTVL | 0.01 | 51300 |
